Measurements: US20160200791A1 (Novo Nordisk, published 2016)
Numbered stars: 1 amine (or outer) side, 2 acyl side, 3 side chain; on linkers, the order of the positions; unused ones are H or OH. Square brackets hold non-standard residues; d marks the D form. Side chains are listed from the residue outwards. Ends that are not written are not given here. * marks the point of attachment. Hexadecanoyl(16-SO3H) = O=C(CCCCCCCCCCCCCCCS(=O)(=O)O)*; C20 diacid = O=C(O)CCCCCCCCCCCCCCCCCCC(=O)*; C18 diacid = O=C(O)CCCCCCCCCCCCCCCCC(=O)*; γGlu = O=C(O)[C@H](CCC(=O)[*:2])N[*:1]; εLys = N[C@@H](CCCCN[*:1])C(=O)[*:2]; Cya = N[C@@H](CS(=O)(=O)O)C(=O)O; Trx = NC[C@H]1CC[C@H](C(=O)O)CC1; AEEA = NCCOCCOCC(=O)O; Aib = CC(C)(N)C(=O)O; Ahx = NCCCCCC(=O)O; GABA = NCCCC(=O)O

Experiments:
[1] = target: T1, human GLP-1 receptor (human, UniProt P43220 24-463); assay: competitive SPA binding, displacement of 125I-GLP-1(7-36)NH2 from BHK membranes with human GLP-1R, low HSA (max. 0.001%)
T1 construct: whole, on cells
Method: (§1) For the receptor binding assay in the presence of low HSA (0.005%) 50 μl of the assay buffer was added to each well of an assay plate. Assay continued with step 3. […] For the receptor binding assay in the presence of high HSA (2%) 50 μl of the 8% albumin stock was added to each well of an assay plate. Assay continued with step 3. […] Cell membrane aliquots were thawed and diluted to their working concentration. Fifty μl were added to each well in the assay plate. […] WGA SPA beads were suspended in assay buffer at 20 mg/ml. The suspension was diluted to 10 mg/ml in assay buffer just prior to addition to the assay plate. Fifty μl were added to each well in the assay plate. […] A 25 μl aliquot was reserved for measuring total counts/well. […] The assay plate was incubated for 2 h at 30° C. […] The assay plate was centrifuged for 10 min. […] The assay plate was read in a Packard TopCount NXT instrument.

[2] = target: T1, human GLP-1 receptor; assay: competitive SPA binding, displacement of 125I-GLP-1(7-36)NH2 from BHK membranes with human GLP-1R, high HSA (2.0%)
Method: as §1

[3] = target: T1, human GLP-1 receptor; assay: cell-based or functional assay

| Binder | IC50 [1] | IC50 [2] | In vitro potency EC50 (CRE luciferase reporter gene assay, BHK cells) [3] |
| --- | --- | --- | --- |
| H[Aib]EGTFTSDVSK([AEEA-AEEA-γGlu-Trx-Hexadecanoyl(16-SO3H)])YLEK([AEEA-AEEA-γGlu-Trx-Hexadecanoyl(16-SO3H)])QAAREFIK([AEEA-AEEA-γGlu-Trx-Hexadecanoyl(16-SO3H)])WLVRGRG (Full chemical name printed at h-0052) | 2.3 nM | 289 nM | 0.067 nM |
| H[Aib]EGTFTSDVSK([AEEA-AEEA-γGlu-C18 diacid])YLEEQAARK([AEEA-AEEA-γGlu-C18 diacid])FIAWLVRGRK([AEEA-AEEA-γGlu-C18 diacid]) (Full chemical name printed at h-0060) | 0.6 nM | > 1000 nM | 0.04 nM |
| H[Aib]EGTFTSDVSK([Ser-Ser-Ser-Ser-Ser-Ser-γGlu-C18 diacid])YLEGQAARK([Ser-Ser-Ser-Ser-Ser-Ser-γGlu-C18 diacid])FIAWLVRGRK([Ser-Ser-Ser-Ser-Ser-Ser-γGlu-C18 diacid]) (Full chemical name printed at h-0068) |  | > 1000 nM | 0.067 nM |
| H[Aib]EGTFTSDVSSYLEEQAARK([AEEA-AEEA-γGlu-C18 diacid])FIK([AEEA-AEEA-γGlu-C18 diacid])WLVRGRK([AEEA-AEEA-γGlu-C18 diacid]) (Full chemical name printed at h-0070) | 0.82 nM | 188 nM | 0.026 nM |
| H[Aib]EGTFTSDVSSYLEEQAAK([εLys-AEEA-AEEA-γGlu-C18 diacid])EFIK([εLys-AEEA-AEEA-γGlu-C18 diacid])WLVRGRK([εLys-AEEA-AEEA-γGlu-C18 diacid]) (Full chemical name printed at h-0072) | 8.7 nM | > 1000 nM | 0.085 nM |
| H[Aib]EGTFTSDVSSYLEEQAAK([εLys-AEEA-AEEA-Cya-Hexadecanoyl(16-SO3H)])EFIK([εLys-AEEA-AEEA-Cya-Hexadecanoyl(16-SO3H)])WLVRGRK([εLys-AEEA-AEEA-Cya-Hexadecanoyl(16-SO3H)]) (Full chemical name printed at h-0074) | 5 nM | 214 nM | 0.099 nM |
| H[Aib]EGTFTSDVSK([AEEA-AEEA-εLys-Hexadecanoyl(16-SO3H)])YLEK([AEEA-AEEA-εLys-Hexadecanoyl(16-SO3H)])QAAREFIK([AEEA-AEEA-εLys-Hexadecanoyl(16-SO3H)])WLVRGRG (Full chemical name printed at h-0076) | 0.23 nM | 84 nM | 0.026 nM |
| H[Aib]EGTFTSDVSK([AEEA-AEEA-εLys-εLys-Hexadecanoyl(16-SO3H)])YLEK([AEEA-AEEA-εLys-εLys-Hexadecanoyl(16-SO3H)])QAAREFIK([AEEA-AEEA-εLys-εLys-Hexadecanoyl(16-SO3H)])WLVRGRG (Full chemical name printed at h-0078) | 0.19 nM | 100 nM | 0.018 nM |
| H[Aib]EGTFTSDVSK([AEEA-AEEA-AEEA-AEEA-AEEA-εLys-εLys-C20 diacid])YLEK([AEEA-AEEA-AEEA-AEEA-AEEA-εLys-εLys-C20 diacid])QAAREFIK([AEEA-AEEA-AEEA-AEEA-AEEA-εLys-εLys-C20 diacid])WLVRGRG (Full chemical name printed at h-0080) | 11 nM | 426 nM | 0.082 nM |
| H[Aib]EGTFTSDVSK([AEEA-AEEA-AEEA-AEEA-AEEA-εLys-εLys-C18 diacid])YLEK([AEEA-AEEA-AEEA-AEEA-AEEA-εLys-εLys-C18 diacid])QAAREFIK([AEEA-AEEA-AEEA-AEEA-AEEA-εLys-εLys-C18 diacid])WLVRGRG (Full chemical name printed at h-0082) | 0.4 nM | 381 nM | 0.014 nM |
| H[Aib]EGTFTSDVSK([AEEA-AEEA-AEEA-AEEA-AEEA-εLys-εLys-εLys-C18 diacid])YLEK([AEEA-AEEA-AEEA-AEEA-AEEA-εLys-εLys-εLys-C18 diacid])QAAREFIK([AEEA-AEEA-AEEA-AEEA-AEEA-εLys-εLys-εLys-C18 diacid])WLVRGRG (Full chemical name printed at h-0084) | 0.08 nM | 143 nM | 0.018 nM |
| H[Aib]EGTFTSDVSK([AEEA-AEEA-AEEA-AEEA-εLys-εLys-GABA-Hexadecanoyl(16-SO3H)])YLEK([AEEA-AEEA-AEEA-AEEA-εLys-εLys-GABA-Hexadecanoyl(16-SO3H)])QAAREFIK([AEEA-AEEA-AEEA-AEEA-εLys-εLys-GABA-Hexadecanoyl(16-SO3H)])WLVRGRG (Full chemical name printed at h-0086) | 0.1 nM | 19 nM | 0.116 nM |
| H[Aib]EGTFTSDVSK([AEEA-AEEA-AEEA-AEEA-εLys-εLys-Ahx-Hexadecanoyl(16-SO3H)])YLEK([AEEA-AEEA-AEEA-AEEA-εLys-εLys-Ahx-Hexadecanoyl(16-SO3H)])QAAREFIK([AEEA-AEEA-AEEA-AEEA-εLys-εLys-Ahx-Hexadecanoyl(16-SO3H)])WLVRGRG (Full chemical name printed at h-0088; the printed name is uneven in the number of OEG units for the side chains at 18 and 22 (four opened, three closed)) | 0.15 nM | 49 nM | 0.019 nM |
| H[Aib]EGTFTSDVSK([AEEA-AEEA-Cya-Hexadecanoyl(16-SO3H)])YLEK([AEEA-AEEA-Cya-Hexadecanoyl(16-SO3H)])QAAREFIK([AEEA-AEEA-Cya-Hexadecanoyl(16-SO3H)])WLVRGRG (Full chemical name printed at h-0054) | 1.4 nM | 290 nM | 0.02 nM |
| H[Aib]EGTFTSDVSK([AEEA-AEEA-AEEA-AEEA-AEEA-εLys-εLys-Ahx-Hexadecanoyl(16-SO3H)])YLEK([AEEA-AEEA-AEEA-AEEA-AEEA-εLys-εLys-Ahx-Hexadecanoyl(16-SO3H)])QAAREFIK([AEEA-AEEA-AEEA-AEEA-AEEA-εLys-εLys-Ahx-Hexadecanoyl(16-SO3H)])WLVRGRG (Full chemical name printed at h-0090) | 0.36 nM | 100 nM | 0.027 nM |
| H[Aib]EGTFTSDVSK([AEEA-AEEA-AEEA-AEEA-AEEA-εLys-εLys-GABA-Hexadecanoyl(16-SO3H)])YLEK([AEEA-AEEA-AEEA-AEEA-AEEA-εLys-εLys-GABA-Hexadecanoyl(16-SO3H)])QAAREFIK([AEEA-AEEA-AEEA-AEEA-AEEA-εLys-εLys-GABA-Hexadecanoyl(16-SO3H)])WLVRGRG (Full chemical name printed at h-0092) | 0.24 nM | 96 nM | 0.015 nM |
| H[Aib]EGTFTSDVSK([AEEA-AEEA-Cya-Trx-Hexadecanoyl(16-SO3H)])YLEK([AEEA-AEEA-Cya-Trx-Hexadecanoyl(16-SO3H)])QAAREFIK([AEEA-AEEA-Cya-Trx-Hexadecanoyl(16-SO3H)])WLVRGRG (Full chemical name printed at h-0058 (it prints 'Lys8' where Lys18 is meant)) | 1.6 nM | 351 nM | 0.014 nM |
| H[Aib]EGTFTSDVSK([εLys-AEEA-AEEA-γGlu-C18 diacid])YLEEQAARK([εLys-AEEA-AEEA-γGlu-C18 diacid])FIAWLVRGRK([εLys-AEEA-AEEA-γGlu-C18 diacid]) (Full chemical name printed at h-0062 (it prints 'Lys8' where Lys18 is meant)) | 0.4 nM | > 1000 nM | 0.012 nM |
| H[Aib]EGTFTSDVSK([AEEA-γGlu-AEEA-C18 diacid])YLEEQAARK([AEEA-γGlu-AEEA-C18 diacid])FIAWLVRGRK([AEEA-γGlu-AEEA-C18 diacid]) (Full chemical name printed at h-0064) | 0.7 nM | > 1000 nM | 0.076 nM |
